Laboratory results as given in PMC10572825.

Biological target: CXCL12 (Homo sapiens) (UniProt P48061)
Assay: isothermal fluorescence titration
Details: FITC-labelled tenascin-C

Sequence of CXCL12 (Homo sapiens) (P48061 22-89): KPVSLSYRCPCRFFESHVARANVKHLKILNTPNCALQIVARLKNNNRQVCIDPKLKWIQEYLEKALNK

Kd: 1010 nM
Substance: Tenascin-C, Q80YX1
